Target: T1, purified PSD (Homo sapiens, UniProt Q9UG56)
T1 construct: Purified recombinant protein (full length) of human phosphatidylserine decarboxylase (PSD); His tag (N); purchased Acris-OriGene; host or cells: E. coli
T1 sequence (Q9UG56 53-409): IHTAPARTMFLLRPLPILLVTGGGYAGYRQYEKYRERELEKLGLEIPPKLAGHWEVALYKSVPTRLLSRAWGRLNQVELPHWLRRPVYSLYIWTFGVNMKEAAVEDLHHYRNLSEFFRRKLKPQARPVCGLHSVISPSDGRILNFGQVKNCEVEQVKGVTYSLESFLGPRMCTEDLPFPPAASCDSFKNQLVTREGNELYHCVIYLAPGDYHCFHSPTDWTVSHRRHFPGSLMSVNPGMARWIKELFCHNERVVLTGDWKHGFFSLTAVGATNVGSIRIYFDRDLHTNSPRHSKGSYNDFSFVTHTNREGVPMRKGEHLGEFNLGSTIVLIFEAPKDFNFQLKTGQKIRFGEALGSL
Test: PSD activity, DSB‐3 method
Type: biochemical
Conditions: PS 50 μM, 45 min, 30 °C, n = 4, read-out: IC50, SMAC‐inhibiting PSD activity
Method: PE content in the lipid samples was measured as described previously. Briefly, solvent was evaporated from the lipid samples under nitrogen gas, and samples were resuspended in 0.8 mM Triton X‐100. Sample aliquots were added to 96‐well plates containing (50 µL) reaction mixture (80 mM NaCl, 2 mM K2HPO4, pH 7.4) and of borate buffer (12.5 µL) (100 mM boric acid, 75 mM NaCl, 25 mM sodium tetraborate, pH 9). After mixing, 12.5 µL of 100 µM DSB‐3, in 10 mM K2HPO4 (pH 7.4), was then added and incubated for 2 h in the dark with shaking (100 r.p.m.). Fluorescence was measured using excitation λex = 403 nm and emission λem = 508 nm. A calibration curve was obtained using PE (Biovision) as a standard.
To determine PSD activity, purified enzyme (0.2–0.4 μM) or crude cell lysate (0.25–0.5 μg of protein) was incubated with PS (50 μM) for 45 min at 30 °C in the dark with shaking under the conditions described above for PE determination. PSD activity was measured by determining the PE produced as described above, except that the signal obtained in the absence of substrate PS (representing endogenous PE) was subtracted from the signal obtained in the presence of PS.
Human recombinant SMAC (10339‐H08E) was produced by Sino Biologicals (Wayne, PA, USA). […]

IC50: 0.4 µM
B1: SMAC: Human recombinant SMAC (10339‐H08E) produced by Sino Biologicals (protein)
chain: LCVPVVANFKKRCFSELIRPWHKTVTIGFGVTLCAVPIAQKSEPHSLSSEALMRRAVSLVTDSTSTFLSQTTYALIEAITEYTKAVYTLTSLYRQYTSLLGKMNSEEEDEVWQVIIGARAEMTSKHQEYLKLETTWMTAVGLSEMAAEAAYQTGADQASITARNHIQLVKLQVEEVHQLSRKAETKLAEAQIEELRQKTQEEGEERAESEQEAYLRED
modifications: fluorescently labelled with the NanoTemper Protein labelling kit BLUE (in the MST with PSD only)
notes: Human recombinant SMAC (10339‐H08E) produced by Sino Biologicals
